Positions count from the first letter of the chain named. Names may count otherwise.
B1: E35D/M47V (protein)
chain: VIHVTKEVKEVATLSCGHNVSVEELAQTRIYWQKDKKMVLTMMSGDVNIWPEYKNRTIFDITNNLSIVILALRPSDEGTYECVVLKYEKDAFKREHLAEVTLSVKAD
B2: E35D/M47L/A71G/L85M (protein)
chain: B1 chain with V47L, A71G, L85M
B3: V22A/E35D/M47L/A71G (protein)
chain: B1 chain with V22A, V47L, A71G
B4: E35D/D46E/M47I (protein)
chain: B1 chain with D46E, V47I
B5: Q27H/E35D/M47I (protein)
chain: B1 chain with Q27H, V47I
B6: E35D/D46E/L85M (protein)
chain: B1 chain with D46E, V47M, L85M
B7: E35D/D46E/A91G (protein)
chain: B1 chain with D46E, V47M, A91G

Key:
CD28 [1] = molecular target: T1, CD28 (Homo sapiens, UniProt P10747); assay: Flow binding to Jurkat/IL2 reporter cells (CD28); parameters: host or cells: Jurkat cells expressing an IL-2-luciferase reporter; details: for CD28 MFI at 33.3 nM: Jurkats (CD28)
In short: (§1)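 Flow cytometry on transfected CHO cells or CD28+ Jurkat/IL2 reporter cells, blocked 20 min in PBS/1% BSA/0.1% azide. Fusion protein 45 min on ice; PE anti-human Fc 1:150, 30 min on ice; fixed in 2% formaldehyde. Read-out PE MFI, EC50 calculated.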

CD28 [2] = molecular target: T1, CD28; assay: Jurkat/IL2 + CHO/OKT3 +/- PD-L1 reporter assay: PD-L1-dependent CD28 costimulation; format: cell-based; parameters: host or cells: Jurkat cells expressing an IL-2-luciferase reporter; details: Jurkat/IL2 + CHO/OKT3/PD-L1; for Fold Increase over WT CD80-IgV-Fe / Relative Luciferase Units (RLU), CD80 Cone 5.0 nM: 5.0 nM
In short: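 Jurkat reporter cells (100,000/well) preincubated 15 min at room temperature with test protein, then cocultured 5 h at 37 °C with CHO aAPCs bearing anti-CD3 scFv (OKT3) with or without PD-L1. Luciferase luminescence (RLU) read after lysis-substrate addition.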

huCTLA4 = huCTLA4 (Homo sapiens, UniProt P16410); assay: Flow binding to CHO cells stably expressing CTLA4; parameters: huCTLA4 and huPD-L1, full-length mammalian surface expression constructs were generated; expressed in transfected cells; host or cells: CHO cells, lentiviral transduction, sorted to >98% purity; details: for CTLA4 MFI at 33.3 nM: CHO cells stably expressing CTLA4
Chain of huCTLA4 (P16410 36-223): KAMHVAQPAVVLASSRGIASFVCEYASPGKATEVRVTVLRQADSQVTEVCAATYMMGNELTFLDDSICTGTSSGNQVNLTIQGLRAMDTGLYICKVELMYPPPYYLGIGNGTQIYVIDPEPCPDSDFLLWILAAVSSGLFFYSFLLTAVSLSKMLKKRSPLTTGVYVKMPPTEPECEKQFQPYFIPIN
In short: as §1

huPD-L1 = huPD-L1 (Homo sapiens, UniProt Q9NZQ7); assay: Flow binding to CHO cells stably expressing PD-L1; parameters: huCTLA4 and huPD-L1, full-length mammalian surface expression constructs were generated; expressed in transfected cells; host or cells: CHO cells, lentiviral transduction, sorted to >98% purity; details: for PD-L1 MFI at 33.3 nM: CHO cells stably expressing PD-L1
Chain of huPD-L1 (Q9NZQ7 19-290): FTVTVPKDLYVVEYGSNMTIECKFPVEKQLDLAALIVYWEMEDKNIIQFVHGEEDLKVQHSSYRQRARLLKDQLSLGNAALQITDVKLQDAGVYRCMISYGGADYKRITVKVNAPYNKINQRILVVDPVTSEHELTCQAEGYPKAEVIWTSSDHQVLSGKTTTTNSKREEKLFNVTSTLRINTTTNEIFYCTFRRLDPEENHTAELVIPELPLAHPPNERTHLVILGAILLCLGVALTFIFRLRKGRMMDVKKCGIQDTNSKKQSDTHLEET
In short: as §1

[3] = Table E10, 33.3 nM, relative to CD80 WT IgV-Fc
[4] = Table E19, MFI at 33.3 nM relative to WT CD80 ECD-Fc (Abcam)
[5] = Table E10, binding to PD-L1 compared to binding to CD28

CD28 MFI at 33.3 nM (CD28 [1]; Table E10, 33.3 nM) | CD28 Fold change to WT CD80 (CD28 [1]; [3]) | CD28 MFI at 33.3 nM (CD28 [1]; Table E19, 33.3 nM) | CD28 Fold change to WT CD80 (CD28 [1]; [4]) [fold] | Fold Increase over WT CD80-IgV-Fe (CD28 [2]; Table E12) | Relative Luciferase Units (RLU), CD80 Cone 5.0 nM (CD28 [2]; Table E12) [RLU] | Fold Increase over WT CD80-IgV-Fe (CD28 [2]; Table E21) [fold] | Relative Luciferase Units (RLU), CD80 Conc 5.0 nM (CD28 [2]; Table E21, CD80 Conc 5.0 nM) [RLU] | CTLA4 MFI at 33.3 nM (huCTLA4; Table E10, 33.3 nM) | CTLA4 Fold change to WT CD80 (huCTLA4; [3]) | CTLA4 MFI at 33.3 nM (huCTLA4; Table E19, 33.3 nM) | CTLA4 Fold change to WT CD80 (huCTLA4; [4]) [fold] | PD-L1 MFI at 33.3 nM (huPD-L1; Table E10, 33.3 nM) | PD-L1 Fold change to WT CD80 (huPD-L1; [3]) | Ratio of PDL1:CD28 (huPD-L1; [5]) | PD-L1 MFI at 33.3 nM (huPD-L1; Table E19, 33.3 nM) | PD-L1 Fold change to WT CD80 (huPD-L1; [4]) [fold] | Ratio of PDL1:CD28 (huPD-L1; Table E19, ratio of MFI at 33.3 nM) | Molecule
461 | 7.0 | 501 | 0.7 | 3.4 | 1353 | 4.7 | 543 | 20893 | 10.9 | 44569 | 1.1 | 2935 | 41.7 | 6 | 6796 | 53.1 | 13.6 | B1
199 | 3.0 | – | – | 3.8 | 1513 | – | – | 16609 | 8.7 | – | – | 8312 | 118.2 | 42 | – | – | – | B2
990 | 15.0 | – | – | 6.5 | 2583 | – | – | 21855 | 11.4 | – | – | 8168 | 116.2 | 8 | – | – | – | B3
1001 | 15.2 | – | – | 4.8 | 1915 | – | – | 21394 | 11.2 | – | – | 3789 | 53.9 | 4 | – | – | – | B4
756 | 11.5 | – | – | 4.6 | 1829 | – | – | 27530 | 14.4 | – | – | 3424 | 48.7 | 5 | – | – | – | B5
164 | 2.5 | – | – | 3.5 | 1413 | – | – | 30289 | 15.8 | – | – | 2880 | 41.0 | 18 | – | – | – | B6
3450 | 52.3 | – | – | 1.0 | 395 | – | – | 32189 | 16.8 | – | – | 2818 | 40.1 | 1 | – | – | – | B7

From patent publication US20220177587A1, “METHODS AND USES OF VARIANT CD80 FUSION PROTEINS AND RELATED CONSTRUCTS” (Alpine Immune Sciences, Inc., priority 2018, published 2022)
